Reference: patent US20130323263A1, “SPARC ANGIOGENIC DOMAIN AND METHODS OF USE” (ABRAXIS BIOSCIENCE, LLC, priority 2010, published 2013)

Columns and labels:
HUVEC [1] = test: HUVEC sprout formation bead assay; assay type: cell-based
Method: (§1) Recombinant human SPARC and genetically engineered variants were expressed and purified using HEK 293 cells maintained in hollow fiber bio-reactors. The angiogenic activity of rhSPARC and its variants was evaluated using a HUVEC tube formation assay and a HUVEC sprout formation bead assay.
(§2) In the HUVEC tube formation assay, rhSPARC was pro-angiogenic at 10 μg/mL and anti-angiogenic at 100 μg/mL. […] Additional rhSPARC variants with deletions and single/double amino acid substitutions tested in these assays included: Q3 deletion (BIO2), an inversion of the putative angiogenic domain (BIOS), a double K>Q substitution in the proposed angiogenic domain (BIO11), the genetic ablation of the putative catephsin K recognition sites (BIO8), and a proteolytic degradation product of rhSPARC. Terminal amino acid analysis indicated the angiogenic activity is localized to SEQ ID NO: 1.

HUVEC [2] = test: HUVEC (3-D) tube formation assay; assay type: cell-based; conditions: for angiogenic activity: FIG. 2
Method: as §1, §2

B1: rhSPARC: Recombinant human SPARC expressed and purified using HEK 293 cells (protein, UniProt P09486 18-303, looked up)
SPARC: APQQEALPDETEVVEETVAEVTEVSVGANPVQVEVGEFDDGAEETEEEVVAENPCQNHHCKHGKVCELDENNTPMCVCQDPTSCPAPIGEFEKVCSNDNKTFDSSCHFFATKCTLEGTKKGHKLHLDYIGPCKYIPPCLDSELTEFPLRMRDWLKNVLVTLYERDEDNNLLTEKQKLRVKKIHENEKRLEAGDHPVELLARDFEKNYNMYIFPVHWQFGQLDQHPIDGYLSHTELAPLRAPLIPMEHCTTRFFETCDLDNDKYIALDEWAGCFGIKQKDIDKDLVI
For B1, the “blood vessel maturity on addition of the protein” value (HUVEC [1]) was “more mature blood vessels well supported by pericytes”, the “angiogenic behavior over concentration” value (HUVEC [2]; HUVEC 3-D tube formation, concentrations up to 100 ug/ml, FIG. 4) was “increases as the concentration approaches 10 ug/ml and drops off as it approaches 100 ug/ml” and the angiogenic activity (HUVEC [2]; at 10 μg/mL) was “pro-angiogenic”. For the same molecule, the angiogenic activity (HUVEC [2]; at 100 μg/mL) was “anti-angiogenic”.
